In article PMC9910501:

Target: OsASI1-BAH (residues 19 to 183) (rice)
Assay: ITC

Kd: 184 nM
Substance: OsSUVH6 N-terminal peptide (OsSUVH6N, residues 287 to 304)
